Measurements as given in article doi:10.1101/2022.06.14.496074 (bioRxiv, 2022).

Tests used:
[1] = biological target: T1, AcrA (E. coli (K12 derived strain)), P0AE06; test: SEC; details: remark: other sources report otherwise
T1 chain: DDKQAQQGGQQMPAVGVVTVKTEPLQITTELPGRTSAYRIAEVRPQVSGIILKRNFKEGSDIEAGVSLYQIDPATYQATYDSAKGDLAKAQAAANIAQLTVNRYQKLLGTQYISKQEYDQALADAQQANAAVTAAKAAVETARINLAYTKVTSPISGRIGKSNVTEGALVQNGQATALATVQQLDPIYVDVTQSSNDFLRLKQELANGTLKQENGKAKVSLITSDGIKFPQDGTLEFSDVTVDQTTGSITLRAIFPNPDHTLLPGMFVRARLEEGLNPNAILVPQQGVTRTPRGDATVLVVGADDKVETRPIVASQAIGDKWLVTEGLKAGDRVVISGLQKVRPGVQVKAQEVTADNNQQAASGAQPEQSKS

TolC = biological target: T2, TolC (E. coli, UniProt P02930 23-493); test: single-channel electrophysiology
T2 sequence: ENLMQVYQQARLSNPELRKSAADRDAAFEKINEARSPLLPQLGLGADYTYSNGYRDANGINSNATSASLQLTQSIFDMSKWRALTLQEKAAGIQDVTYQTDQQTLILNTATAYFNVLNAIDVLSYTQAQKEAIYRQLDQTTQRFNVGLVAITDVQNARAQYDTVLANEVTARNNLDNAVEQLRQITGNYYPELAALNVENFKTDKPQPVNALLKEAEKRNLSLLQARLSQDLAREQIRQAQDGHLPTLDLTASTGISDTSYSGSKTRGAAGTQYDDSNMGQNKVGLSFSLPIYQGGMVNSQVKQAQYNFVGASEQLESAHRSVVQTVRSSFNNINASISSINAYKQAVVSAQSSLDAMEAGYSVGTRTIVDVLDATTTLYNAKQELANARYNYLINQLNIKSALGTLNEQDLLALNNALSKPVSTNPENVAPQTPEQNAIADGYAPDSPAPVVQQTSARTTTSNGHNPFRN

- stoichiometry N [1]: 2
- binding result (TolC): binds
B1: AcrA (natural protein)
chain: DDKQAQQGGQQMPAVGVVTVKTEPLQITTELPGRTSAYRIAEVRPQVSGIILKRNFKEGSDIEAGVSLYQIDPATYQATYDSAKGDLAKAQAAANIAQLTVNRYQKLLGTQYISKQEYDQALADAQQANAAVTAAKAAVETARINLAYTKVTSPISGRIGKSNVTEGALVQNGQATALATVQQLDPIYVDVTQSSNDFLRLKQELANGTLKQENGKAKVSLITSDGIKFPQDGTLEFSDVTVDQTTGSITLRAIFPNPDHTLLPGMFVRARLEEGLNPNAILVPQQGVTRTPRGDATVLVVGADDKVETRPIVASQAIGDKWLVTEGLKAGDRVVISGLQKVRPGVQVKAQEVTADNNQQAASGAQPEQSKS
